Results from article PMC13483476.

What was measured:
[1] = biological target: JR-FL.v6 V3 peptide (HIV-1 clade B isolate JR-FL); experiment: differential scanning fluorimetry
[2] = biological target: JR-FL.v6 V3 peptide (HIV-1 clade B isolate JR-FL); experiment: SPR

**Q.** With 19b antigen-binding fragment (Fab) as the substance, how does the increase of the transition temperature of the Fab when bound to the peptide [1] read?
**A.** 6.3 °C

**Q.** What about the Kd [2] of the same substance?
**A.** 1.74 nM
